The target in experiment [1] is bp.CS06xB10v5. Put plainly: -; apparent KD.
Experiment [2] has as its target o.a. B10v5. Put plainly: -; apparent KD.

B1: hu c-Met (receptor)
chain: ECKEALAKSEMNVNMKYQLPNFTAETPIQNVILHEHHIFLGATNYIYVLNEEDLQKVAEYKTGPVLEHPDCFPCQDCSSKANLSGGVWKDNINMALVVDTYYDDQLISCGSVNRGTCQRHVFPHNHTADIQSEVHCIFSPQIEEPSQCPDCVVSALGAKVLSSVKDRFINFFVGNTINSSYFPDHPLHSISVRRLKETKDGFMFLTDQSYIDVLPEFRDSYPIKYVHAFESNNFIYFLTVQRETLDAQTFHTRIIRFCSINSGLHSYMEMPLECILTEKRKKRSTKKEVFNILQAAYVSKPGAQLARQIGASLNDDILFGVFAQSKPDSAEPMDRSAMCAFPIKYVNDFFNKIVNKNNVRCLQHFYGPNHEHCFNRTLLRNSSGCEARRDEYRTEFTTALQRVDLFMGQFSEVLLTSISTFIKGDLTIANLGTSEGRFMQVVVSRSGPSTPHVNFLLDSHPVSPEVIVEHTLNQNGYTLVITGKKITKIPLNGLGCRHFQSCSQCLSAPPFVQCGWCHDKCVRSEECLSGTWTQQICLPAIYKVFPNSAPLEGGTRLTICGWDFGFRRNNKFDLKKTRVLLGNESCTLTLSESTMNTLKCTVGPAMNKHFNMSIIISNGHGTTQYSTFSYVDPVITSISPKYGPMAGGTLLTLTGNYLNSGNSRHISIGGKTCTLKSVSNSILECYTPAQTISTEFAVKLKIDLANRETSIFSYREDPIVYEIHPTKSFISGGSTITGVGKNLNSVSVPRMVINVHEAGRNFTVACQHRSNSEIICCTTPSLQQLNLQLPLKTKAFFMLDGILSKYFDLIYVHNPVFKPFEKPVMISMGNENVLEIKGNDIDPEAVKGEVLKVGNKSCENIHLHSEAVLCTVPNDLLKLNSELNIEWKQAISSTVLGKVIVQPDQNFT
As to B1, the Kd in experiment [1] was 0.0196 nM; in experiment [2] it was 0.417 nM.

These data come from patent US20190248907A1 (published 2019).
